Where no end group is shown, it is not given here. The star is where a group is joined. C16 diacid = O=C(O)CCCCCCCCCCCCCCC(=O)*
T1: human GIP receptor (human, UniProt P48546 22-466)
T1 sequence (looked up): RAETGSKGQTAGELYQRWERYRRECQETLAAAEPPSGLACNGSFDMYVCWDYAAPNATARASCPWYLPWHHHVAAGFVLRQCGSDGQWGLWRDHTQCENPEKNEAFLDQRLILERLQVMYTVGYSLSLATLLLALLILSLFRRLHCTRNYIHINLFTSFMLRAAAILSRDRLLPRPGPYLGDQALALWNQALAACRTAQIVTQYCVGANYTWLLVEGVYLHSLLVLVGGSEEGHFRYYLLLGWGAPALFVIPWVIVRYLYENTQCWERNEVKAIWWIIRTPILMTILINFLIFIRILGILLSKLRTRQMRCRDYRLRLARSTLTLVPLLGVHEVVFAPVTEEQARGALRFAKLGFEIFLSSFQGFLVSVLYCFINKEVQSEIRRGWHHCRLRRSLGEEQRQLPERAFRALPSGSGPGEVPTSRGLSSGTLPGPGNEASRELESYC


Target: T1, human GIP receptor
Assay: cell-based or functional assay

Binder	CisBio cAMP agonism % Efficacy [%]	CisBio cAMP antagonism % inhib [%]	CisBio cAMP antagonism IC50 [nM]	CisBio cAMP antagonism pIC50	DiscoveRx cAMP antagonism % inhib [%]	DiscoveRx cAMP antagonism IC50 [nM]	DiscoveRx cAMP antagonism log IC50 [log M]	DiscoveRx cAMP agonism Emax
DYSIAMDKIK(C16 diacid)QQDFVNWLLAQK-NH2 (N-terminus assumed; SMILES CC[C@H](C)[C@H](NC(=O)[C@H](CO)NC(=O)[C@H](Cc1ccc(O)cc1)NC(=O)[C@@H](N)CC(=O)O)C(=O)N[C@@H](C)C(=O)N[C@@H](CCSC)C(=O)N[C@@H](CC(=O)O)C(=O)N[C@@H](CCCCN)C(=O)N[C@H](C(=O)N[C@@H](CCCCNC(=O)CCCCCCCCCCCCCCC(=O)O)C(=O)N[C@@H](CCC(N)=O)C(=O)N[C@@H](CCC(N)=O)C(=O)N[C@@H](CC(=O)O)C(=O)N[C@@H](Cc1ccccc1)C(=O)N[C@H](C(=O)N[C@@H](CC(N)=O)C(=O)N[C@@H](Cc1c[nH]c2ccccc12)C(=O)N[C@@H](CC(C)C)C(=O)N[C@@H](CC(C)C)C(=O)N[C@@H](C)C(=O)N[C@@H](CCC(N)=O)C(=O)N[C@@H](CCCCN)C(N)=O)C(C)C)[C@@H](C)CC) [AT356]	0	–	–	–	–	–	–	–
PGTFISDYSIAMDRIK(C16 diacid)QQDFVNWLLAQR-NH2 (N-terminus assumed; SMILES CC[C@H](C)[C@H](NC(=O)[C@H](CO)NC(=O)[C@H](Cc1ccc(O)cc1)NC(=O)[C@H](CC(=O)O)NC(=O)[C@H](CO)NC(=O)[C@@H](NC(=O)[C@H](Cc1ccccc1)NC(=O)[C@@H](NC(=O)CNC(=O)[C@@H]1CCCN1)[C@@H](C)O)[C@@H](C)CC)C(=O)N[C@@H](C)C(=O)N[C@@H](CCSC)C(=O)N[C@@H](CC(=O)O)C(=O)N[C@@H](CCCNC(=N)N)C(=O)N[C@H](C(=O)N[C@@H](CCCCNC(=O)CCCCCCCCCCCCCCC(=O)O)C(=O)N[C@@H](CCC(N)=O)C(=O)N[C@@H](CCC(N)=O)C(=O)N[C@@H](CC(=O)O)C(=O)N[C@@H](Cc1ccccc1)C(=O)N[C@H](C(=O)N[C@@H](CC(N)=O)C(=O)N[C@@H](Cc1c[nH]c2ccccc12)C(=O)N[C@@H](CC(C)C)C(=O)N[C@@H](CC(C)C)C(=O)N[C@@H](C)C(=O)N[C@@H](CCC(N)=O)C(=O)N[C@@H](CCCNC(=N)N)C(N)=O)C(C)C)[C@@H](C)CC) [AT500]	4	77	66.8	7.2	90	29	-7.5	–
GGTFISDYSIAMDRIKQQDFVNWLLAQR (HELM PEPTIDE1{G.G.T.F.I.S.D.Y.S.I.A.M.D.R.I.K.Q.Q.D.F.V.N.W.L.L.A.Q.R.[am]}|PEPTIDE2{[O=C(O)CCCCCCCCCCCCCCC(=O)[*:2]].[gGlu]}$PEPTIDE1,PEPTIDE2,16:R3-2:R2$$$V2.0; N-terminus assumed; SMILES CC[C@H](C)[C@H](NC(=O)[C@H](CO)NC(=O)[C@H](Cc1ccc(O)cc1)NC(=O)[C@H](CC(=O)O)NC(=O)[C@H](CO)NC(=O)[C@@H](NC(=O)[C@H](Cc1ccccc1)NC(=O)[C@@H](NC(=O)CNC(=O)CN)[C@@H](C)O)[C@@H](C)CC)C(=O)N[C@@H](C)C(=O)N[C@@H](CCSC)C(=O)N[C@@H](CC(=O)O)C(=O)N[C@@H](CCCNC(=N)N)C(=O)N[C@H](C(=O)N[C@@H](CCCCNC(=O)CC[C@H](NC(=O)CCCCCCCCCCCCCCC(=O)O)C(=O)O)C(=O)N[C@@H](CCC(N)=O)C(=O)N[C@@H](CCC(N)=O)C(=O)N[C@@H](CC(=O)O)C(=O)N[C@@H](Cc1ccccc1)C(=O)N[C@H](C(=O)N[C@@H](CC(N)=O)C(=O)N[C@@H](Cc1c[nH]c2ccccc12)C(=O)N[C@@H](CC(C)C)C(=O)N[C@@H](CC(C)C)C(=O)N[C@@H](C)C(=O)N[C@@H](CCC(N)=O)C(=O)N[C@@H](CCCNC(=N)N)C(N)=O)C(C)C)[C@@H](C)CC) [AT502]	13	65	293	6.5	85	52	-7.3	5
SGTFISDYSIAMDRIKQQDFVNWLLAQR (HELM PEPTIDE1{S.G.T.F.I.S.D.Y.S.I.A.M.D.R.I.K.Q.Q.D.F.V.N.W.L.L.A.Q.R.[am]}|PEPTIDE2{[O=C(O)CCCCCCCCCCCCCCC(=O)[*:2]].[gGlu]}$PEPTIDE1,PEPTIDE2,16:R3-2:R2$$$V2.0; N-terminus assumed; SMILES CC[C@H](C)[C@H](NC(=O)[C@H](CO)NC(=O)[C@H](Cc1ccc(O)cc1)NC(=O)[C@H](CC(=O)O)NC(=O)[C@H](CO)NC(=O)[C@@H](NC(=O)[C@H](Cc1ccccc1)NC(=O)[C@@H](NC(=O)CNC(=O)[C@@H](N)CO)[C@@H](C)O)[C@@H](C)CC)C(=O)N[C@@H](C)C(=O)N[C@@H](CCSC)C(=O)N[C@@H](CC(=O)O)C(=O)N[C@@H](CCCNC(=N)N)C(=O)N[C@H](C(=O)N[C@@H](CCCCNC(=O)CC[C@H](NC(=O)CCCCCCCCCCCCCCC(=O)O)C(=O)O)C(=O)N[C@@H](CCC(N)=O)C(=O)N[C@@H](CCC(N)=O)C(=O)N[C@@H](CC(=O)O)C(=O)N[C@@H](Cc1ccccc1)C(=O)N[C@H](C(=O)N[C@@H](CC(N)=O)C(=O)N[C@@H](Cc1c[nH]c2ccccc12)C(=O)N[C@@H](CC(C)C)C(=O)N[C@@H](CC(C)C)C(=O)N[C@@H](C)C(=O)N[C@@H](CCC(N)=O)C(=O)N[C@@H](CCCNC(=N)N)C(N)=O)C(C)C)[C@@H](C)CC) [AT504]	0	85	39.8	7.4	90	21	-7.7	–
SGTFISDYSIAMDRIK(C16 diacid)QQDFVNWLLAQR-NH2 (N-terminus assumed; SMILES CC[C@H](C)[C@H](NC(=O)[C@H](CO)NC(=O)[C@H](Cc1ccc(O)cc1)NC(=O)[C@H](CC(=O)O)NC(=O)[C@H](CO)NC(=O)[C@@H](NC(=O)[C@H](Cc1ccccc1)NC(=O)[C@@H](NC(=O)CNC(=O)[C@@H](N)CO)[C@@H](C)O)[C@@H](C)CC)C(=O)N[C@@H](C)C(=O)N[C@@H](CCSC)C(=O)N[C@@H](CC(=O)O)C(=O)N[C@@H](CCCNC(=N)N)C(=O)N[C@H](C(=O)N[C@@H](CCCCNC(=O)CCCCCCCCCCCCCCC(=O)O)C(=O)N[C@@H](CCC(N)=O)C(=O)N[C@@H](CCC(N)=O)C(=O)N[C@@H](CC(=O)O)C(=O)N[C@@H](Cc1ccccc1)C(=O)N[C@H](C(=O)N[C@@H](CC(N)=O)C(=O)N[C@@H](Cc1c[nH]c2ccccc12)C(=O)N[C@@H](CC(C)C)C(=O)N[C@@H](CC(C)C)C(=O)N[C@@H](C)C(=O)N[C@@H](CCC(N)=O)C(=O)N[C@@H](CCCNC(=N)N)C(N)=O)C(C)C)[C@@H](C)CC) [AT498]	–	–	–	7.9	–	–	-7.7	6
